Reference: patent US20250230251A1 (Bristol-Myers Squibb, published 2025)

How the values were obtained:
huIL-18Rβ-HisAvi [1] = molecular target: T1, huIL-18Rβ-HisAvi (human, UniProt O95256 20-356, biotinylated in the Octet blocking assay); test: SPR T200, mAb on anti-hFc, 37C, pH 7.4; pH 7.4
T1 construct: Soluble analyte in all SPR runs; captured on streptavidin sensors in the Octet assay; also called human IL-18Rβ; human IL-18Rβ-Avi-His
T1 sequence: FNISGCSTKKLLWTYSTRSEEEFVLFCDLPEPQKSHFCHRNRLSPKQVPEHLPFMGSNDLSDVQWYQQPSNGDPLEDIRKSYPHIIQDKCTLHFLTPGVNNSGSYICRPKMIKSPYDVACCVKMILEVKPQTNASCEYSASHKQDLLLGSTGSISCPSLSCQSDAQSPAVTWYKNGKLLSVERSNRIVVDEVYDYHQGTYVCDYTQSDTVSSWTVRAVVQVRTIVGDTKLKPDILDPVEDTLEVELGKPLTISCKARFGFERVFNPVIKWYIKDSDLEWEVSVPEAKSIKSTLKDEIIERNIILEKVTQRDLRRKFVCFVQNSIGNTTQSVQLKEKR

huIL-18Rβ-HisAvi [2] = molecular target: T1, huIL-18Rβ-HisAvi; test: SPR T200, mAb on anti-hFc, 37C, pH 7; control
huIL-18Rβ-HisAvi [3] = molecular target: T1, huIL-18Rβ-HisAvi; test: SPR Biacore T200, mAb captured on anti-human Fc, huIL-18Rβ-HisAvi as analyte, PBST pH 6.0, 37 °C, 1:1 Binding fit
human IL-18Rβ on cells [4] = molecular target: T2, human IL-18Rβ on cells (human, UniProt O95256 20-599); test: cell-based or functional assay
T2 sequence: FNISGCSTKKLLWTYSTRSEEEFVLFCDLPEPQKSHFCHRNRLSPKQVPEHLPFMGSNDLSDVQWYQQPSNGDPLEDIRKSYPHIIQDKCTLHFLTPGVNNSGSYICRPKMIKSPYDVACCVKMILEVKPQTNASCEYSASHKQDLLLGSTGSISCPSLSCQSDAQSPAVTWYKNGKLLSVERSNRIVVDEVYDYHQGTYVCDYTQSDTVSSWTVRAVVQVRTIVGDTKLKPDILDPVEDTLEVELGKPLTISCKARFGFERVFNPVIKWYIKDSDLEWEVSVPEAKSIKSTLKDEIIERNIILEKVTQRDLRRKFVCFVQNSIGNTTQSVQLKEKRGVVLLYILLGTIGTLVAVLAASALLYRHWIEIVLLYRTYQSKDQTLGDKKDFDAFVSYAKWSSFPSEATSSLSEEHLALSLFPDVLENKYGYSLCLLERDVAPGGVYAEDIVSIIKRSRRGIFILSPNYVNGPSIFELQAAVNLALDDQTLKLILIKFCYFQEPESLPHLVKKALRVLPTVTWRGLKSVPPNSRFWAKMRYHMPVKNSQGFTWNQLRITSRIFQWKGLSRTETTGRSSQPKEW

huIL-18Rβ-HisAvi [5] = molecular target: T1, huIL-18Rβ-HisAvi; test: SPR T200, pH 7; sample T0
huIL-18Rβ-HisAvi [6] = molecular target: T1, huIL-18Rβ-HisAvi; test: SPR T200, pH 7; sample 4 w 40C
human IL-18Rβ on cells [7] = molecular target: T2, human IL-18Rβ on cells; test: cell-based or functional assay; remark: listed apart in the source
[8] = molecular target: T3, cynomolgus monkey IL-18Rβ on cells (cynomolgus monkey, UniProt A0A7N9D6S0 20-598); test: cell-based or functional assay
T3 sequence: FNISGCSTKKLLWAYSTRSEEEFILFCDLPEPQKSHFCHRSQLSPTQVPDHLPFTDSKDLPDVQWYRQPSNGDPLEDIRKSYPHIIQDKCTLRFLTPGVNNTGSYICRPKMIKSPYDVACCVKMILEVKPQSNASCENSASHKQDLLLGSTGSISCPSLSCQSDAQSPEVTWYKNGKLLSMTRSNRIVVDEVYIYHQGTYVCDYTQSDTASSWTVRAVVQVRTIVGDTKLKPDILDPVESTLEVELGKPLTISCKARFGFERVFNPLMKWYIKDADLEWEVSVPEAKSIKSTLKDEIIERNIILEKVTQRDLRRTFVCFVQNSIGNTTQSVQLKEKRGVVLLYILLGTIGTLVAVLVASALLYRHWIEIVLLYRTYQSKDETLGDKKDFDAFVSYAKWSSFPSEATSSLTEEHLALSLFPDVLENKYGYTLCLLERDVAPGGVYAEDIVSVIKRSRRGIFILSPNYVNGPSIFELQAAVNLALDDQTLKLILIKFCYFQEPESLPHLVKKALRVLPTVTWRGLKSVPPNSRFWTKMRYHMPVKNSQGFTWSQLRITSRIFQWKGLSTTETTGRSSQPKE

B1: P20 (antibody, human IgG1, kappa)
heavy: QVQLQQSGPGLVKPSETLSLTCTVSGGSINNYYWSWIRQPPGKGLEWIGYIFYSGTTNYNPSLKSRVTISVDTSKNQFSLKLSSVTAADTAVYYCARDVGIAARNSYYYVMDVWGQGTTVTVSSASTKGPSVFPLAPSSKSTSGGTAALGCLVKDYFPEPVTVSWNSGALTSGVHTFPAVLQSSGLYSLSSVVTVPSSSLGTQTYICNVNHKPSNTKVDKRVEPKSCDKTHTCPPCPAPEAEGAPSVFLFPPKPKDTLMISRTPEVTCVVVDVSHEDPEVKFNWYVDGVEVHNAKTKPREEQYNSTYRVVSVLTVLHQDWLNGKEYKCKVSNKALPAPIEKTISKAKGQPREPQVYTLPPSREEMTKNQVSLTCLVKGFYPSDIAVEWESNGQPENNYKTTPPVLDSDGSFFLYSKLTVDKSRWQQGNVFSCSVMHEALHNHYTQKSLSLSPG
light: AIQLTQSPSSLSASVGDRVTITCRASQGISSALAWYQQKPGKAPKFLIYDASSLESGVPSRFSGSGSGTDFTLTISSLQPEDFATYYCQQFNSYPITFGQGTRLEIKRTVAAPSVFIFPPSDEQLKSGTASVVCLLNNFYPREAKVQWKVDNALQSGNSQESVTEQDSKDSTYSLSSTLTLSKADYEKHKVYACEVTHQGLSSPVTKSFNRGEC
notes: Human IgG
huIL-18Rβ-HisAvi [1]
  apparent kon (pooled screen): 330000 M⁻¹ s⁻¹
huIL-18Rβ-HisAvi [2]
  apparent Kd (pooled screen): 0.18 nM
  apparent koff (pooled screen): 5.2e-05 s⁻¹
  apparent kon (pooled screen): 280000 M⁻¹ s⁻¹
huIL-18Rβ-HisAvi [3]
  apparent Kd (pooled screen): 2.35 nM
  apparent koff (pooled screen): 0.000329 s⁻¹
  apparent kon (pooled screen): 140000 M⁻¹ s⁻¹

B2: P20-V1 (antibody, human IgG1, kappa, V domains shown)
VH: QVQLQESGPGLVKPSETLSLTCTVSGGSINNYYWSWIRQPPGKGLEWIGYIFYSGTTNYNPSLKSRVTISVDTSKNQFSLKLSSVTAADTAVYYCARDVGIAARNSYYYVMDVWGQGTTVTVSS
VL: AIQLTQSPSSLSASVGDRVTITCRASQGISSALAWYQQKPGKAPKFLIYEASSLESGVPSRFSGSGSGTDFTLTISSLQPEDFATYYCQQFNSYPITFGQGTRLEIKR
notes: Variant of P20
Human IL-18Rβ on cells [4]
  IC50, IFNg, human whole blood LPS+IL-12, Average: 1.6 nM
  IC50, IFNg, human whole blood LPS+IL-12, donor C163: 1.1 nM
  IC50, IFNg, human whole blood LPS+IL-12, donor C175: 1.48 nM
  IC50, IFNg, human whole blood LPS+IL-12, donor C177: 0.47 nM
  IC50, IFNg, human whole blood LPS+IL-12, donor C198: 4.9 nM
  IC50, IFNg, human whole blood LPS+IL-12, donor C200: 2.55 nM
  IC50, IFNg, human whole blood LPS+IL-12, donor C205: 1.56 nM
  IC50, IFNg, human whole blood LPS+IL-12, donor C215: 1.54 nM
  IC50, IFNg, human whole blood LPS+IL-12, donor C223: 0.83 nM
  IC50, IFNg, human whole blood LPS+IL-12, donor C229: 1.3 nM
  IC50, IFNg, human whole blood LPS+IL-12, donor C238: 0.57 nM
  IC50, IFNg, human whole blood LPS+IL-12, donor C241: 1.2 nM
  IC50, IFNg, human whole blood LPS+IL-12, donor C245: 1.22 nM
  IC50, IFNg, human whole blood LPS+IL-12, donor C251: 1.7 nM
  IC50, IFNg, human whole blood LPS+IL-12, donor C256: 1.38 nM
  IC50, IFNg, human whole blood LPS+IL-12, donor C257: 2.22 nM
huIL-18Rβ-HisAvi [5]
  Kd: 0.27 nM
  koff: 7.2e-05 s⁻¹
  kon: 270000 M⁻¹ s⁻¹
huIL-18Rβ-HisAvi [6]
  Kd: 0.5 nM
  koff: 0.00014 s⁻¹
  kon: 290000 M⁻¹ s⁻¹
Human IL-18Rβ on cells [7]
  IC50, IFNg, human whole blood IL-18+IL-12, Average: 2.28 nM
  IC50, IFNg, human whole blood IL-18+IL-12, donor C121: 3.6 nM
  IC50, IFNg, human whole blood IL-18+IL-12, donor C121 (second row): 1.3 nM
  IC50, IFNg, human whole blood IL-18+IL-12, donor C175: 0.5 nM
  IC50, IFNg, human whole blood IL-18+IL-12, donor C237: 2.74 nM
  IC50, IFNg, human whole blood IL-18+IL-12, donor C238: 1.35 nM
  IC50, IFNg, human whole blood IL-18+IL-12, donor C249: 4.29 nM
  IC50, IFNg, human whole blood IL-18+IL-12, donor C252: 3.23 nM
  IC50, IFNg, human whole blood IL-18+IL-12, donor C253: 1.24 nM
[8]
  IC50, IFNg, cyno whole blood IL-18+IL-12, Average: 4.3 nM
  IC50, IFNg, cyno whole blood IL-18+IL-12, donor B7619 (f): 5.1 nM
  IC50, IFNg, cyno whole blood IL-18+IL-12, donor B8476 (m): 3.3 nM
  IC50, IFNg, cyno whole blood IL-18+IL-12, donor B9301 (f): 4.7 nM
  IC50, IFNg, cyno whole blood IL-18+IL-12, donor B9313 (m): 2.4 nM
  IC50, IFNg, cyno whole blood IL-18+IL-12, donor B9447 (m): 5.1 nM
  IC50, IFNg, cyno whole blood IL-18+IL-12, donor B9496 (m): 1.9 nM
  IC50, IFNg, cyno whole blood IL-18+IL-12, donor B21333 (f): 1.8 nM
  IC50, IFNg, cyno whole blood IL-18+IL-12, donor B21374 (f): 2.5 nM
  IC50, IFNg, cyno whole blood IL-18+IL-12, donor B21394 (f): 6 nM
  IC50, IFNg, cyno whole blood IL-18+IL-12, donor B21411 (f): 5.1 nM
  IC50, IFNg, cyno whole blood IL-18+IL-12, donor B21435 (f): 10.5 nM
  IC50, IFNg, cyno whole blood IL-18+IL-12, donor B21438 (f): 2.2 nM
  IC50, IFNg, cyno whole blood IL-18+IL-12, donor B22017 (f): 5.7 nM
  IC50, IFNg, cyno whole blood IL-18+IL-12, donor B22187 (m): 3.9 nM
